Measured values from patent US20200377556A1 (ABERA BIOSCIENCE, published 2020).

Tests used:
HbpD(Δd1)-SpT [1] = biological target: T1, HbpD(Δd1)-SpT (Escherichia coli, UniProt O88093 53-1377); experiment: covalent Spy-ligation to S. Typhimurium cells, SDS-PAGE/Coomassie
T1 construct: also called HbpD(Δd1)-SpyTag; Hbp(Δd1)-SpT

HbpD(Δd1)-SpT [2] = biological target: T1, HbpD(Δd1)-SpT; experiment: SDS-PAGE/Coomassie of S. Typhimurium cells displaying HbpD(Δd1)-SpT incubated with GFPnb-SpC EQ

B1: GFPnanobody-SpyCatcher (VHH)
VHH: QLVESGGALVQPGGSLRLSCAASGFPVNRYSMRWYRQAPGKEREWVAGMSSAGDRSSYEDSVKGRFTISRDDARNTVYLQMNSLKPEDTAVYYCNVNVGFEYWGQGTQVTVSS
notes: also called GFPnb-SpC; GFPnanobody-SpC
- binding result (HbpD(Δd1)-SpT [1]): binds

B2: GFPnanobody-SpC_EQ (VHH)
VHH: QLVESGGALVQPGGSLRLSCAASGFPVNRYSMRWYRQAPGKEREWVAGMSSAGDRSSYEDSVKGRFTISRDDARNTVYLQMNSLKPEDTAVYYCNVNVGFEYWGQGTQVTVSS
notes: also called GFPnb-SpC EQ; GFPnb fused to SpyCatcher E77Q mutant
- binding result (HbpD(Δd1)-SpT [2]): no binding (tested: 3 µM)
